Series [1] has as its target SpxR (SPD_0969), full-length recombinant (Streptococcus pneumoniae D39). Description: negative stain electron microscopy; SpxR with 37-CE DNA in low salt (final 50 mM NaCl, HEPES pH 7.5, 5 mM MgCl2, 1 mM CaCl2); 3D reconstruction, C3 symmetry, 21.5 A.
Series [2] has the same target. Kind of series: SEC-MALS; Superdex 200 Increase 10/300 GL, 50 mM Tris-Cl pH 7.0, 500 mM NaCl, 1 mM TCEP, 70 uM, 25 C; no DNA. For orientation: SEC sorts molecules by how far they enter the pores of the column.
The target is the same in series [3]. Description: SEC; Superose 6 Increase 10/300 GL, 50 mM Tris-Cl pH 7.0, 500 mM NaCl, 1 mM TCEP; 300 uL at 70 uM; calibrated with molecular weight standards.
Series [4] shares this target. Kind of series: negative stain electron microscopy; SpxR with 37-CE DNA in high salt (50 mM Tris pH 7.0, 500 mM NaCl, 1 mM TCEP); 3D reconstruction, C2 symmetry, 20.9 A.
Series [5] deals with T1, SpxR (Streptococcus pneumoniae D39, UniProt A0A0H2ZR90 1-425). Description: fluorescence polarization; 50 mM NaCl; EMSA: 20 mM HEPES pH 7.2, 50 mM NaCl, 5 mM MgCl2, 1 mM CaCl2, 0.1 mM EDTA, 12% glycerol, 10 mM DTT, 0.5 uM DNA, 400 ng poly(dI-dC); FP: same salts, 2% glycerol, 10 nM DNA (high salt 500 mM NaCl; Fig 5 legend says Tris pH 7.0); temperature not stated. As to conditions: protein: recombinant; tags: His6-SUMO removed by Ulp1; chain copies: 3; label: 6-FAM forward; blunt. On the technique in general: Fluorescence polarisation rises when a labelled molecule tumbles more slowly, as on binding a larger partner.

For series [6], the target named is T2, CpsR (Streptococcus pneumoniae D39, UniProt A0A0H2ZMA3 1-247). Kind of series: EMSA; EMSA: 20 mM HEPES pH 7.2, 50 mM NaCl, 5 mM MgCl2, 1 mM CaCl2, 0.1 mM EDTA, 12% glycerol, 10 mM DTT, 0.5 uM DNA, 400 ng poly(dI-dC); FP: same salts, 2% glycerol, 10 nM DNA (high salt 500 mM NaCl; Fig 5 legend says Tris pH 7.0); temperature not stated. The settings on record: protein: recombinant; tags: His6-SUMO removed by Ulp1; chain copies: 2; label: 6-FAM forward; blunt. A general note: In EMSA bound probe runs differently from free probe, usually more slowly.

Series [7] concerns the target T3, SpxRDBD (Streptococcus pneumoniae D39, UniProt A0A0H2ZR90 1-63). The series is described as above. As to conditions: protein: recombinant; tags: His6-SUMO removed by Ulp1; label: 6-FAM forward; blunt.
Series [8] deals with the molecule itself. Kind of series: SEC; Superose 6 Increase 10/300 GL, 50 mM Tris-Cl pH 7.0, 500 mM NaCl, 1 mM TCEP; 300 uL at 70 uM; calibrated with molecular weight standards.
The target in series [9] is T2, CpsR. Description: EMSA; shift begins at 625 nM protein; competed by unlabeled 37-CE; EMSA: 20 mM HEPES pH 7.2, 50 mM NaCl, 5 mM MgCl2, 1 mM CaCl2, 0.1 mM EDTA, 12% glycerol, 10 mM DTT, 0.5 uM DNA, 400 ng poly(dI-dC); FP: same salts, 2% glycerol, 10 nM DNA (high salt 500 mM NaCl; Fig 5 legend says Tris pH 7.0); temperature not stated. As to conditions: protein: recombinant; tags: His6-SUMO removed by Ulp1; chain copies: 2; label: 6-FAM on forward strand 5' (EMSA, FP); blunt.

Series [10] deals with T1, SpxR. Kind of series: EMSA; shift begins at 312 nM protein; competed by unlabeled 37-CE; EMSA: 20 mM HEPES pH 7.2, 50 mM NaCl, 5 mM MgCl2, 1 mM CaCl2, 0.1 mM EDTA, 12% glycerol, 10 mM DTT, 0.5 uM DNA, 400 ng poly(dI-dC); FP: same salts, 2% glycerol, 10 nM DNA (high salt 500 mM NaCl; Fig 5 legend says Tris pH 7.0); temperature not stated. As to conditions: protein: recombinant; tags: His6-SUMO removed by Ulp1; chain copies: 3; label: 6-FAM on forward strand 5' (EMSA, FP); blunt.

The target in series [11] is T3, SpxRDBD. Kind of series: EMSA; second to 5'+10; EMSA: 20 mM HEPES pH 7.2, 50 mM NaCl, 5 mM MgCl2, 1 mM CaCl2, 0.1 mM EDTA, 12% glycerol, 10 mM DTT, 0.5 uM DNA, 400 ng poly(dI-dC); FP: same salts, 2% glycerol, 10 nM DNA (high salt 500 mM NaCl; Fig 5 legend says Tris pH 7.0); temperature not stated. As to conditions: protein: recombinant; tags: His6-SUMO removed by Ulp1; label: 6-FAM forward; blunt.

In series [12] the target is T3, SpxRDBD. Description: EMSA; strongest of the extended truncations; EMSA: 20 mM HEPES pH 7.2, 50 mM NaCl, 5 mM MgCl2, 1 mM CaCl2, 0.1 mM EDTA, 12% glycerol, 10 mM DTT, 0.5 uM DNA, 400 ng poly(dI-dC); FP: same salts, 2% glycerol, 10 nM DNA (high salt 500 mM NaCl; Fig 5 legend says Tris pH 7.0); temperature not stated. As to conditions: protein: recombinant; tags: His6-SUMO removed by Ulp1; label: 6-FAM forward; blunt.

Several values for one entry are separate records, joined by “and”; a condition that tells them apart may be missing. Equal values may be shown once.

Broadly, the stoichiometry N is the number of molecules, sites or subunits per partner or assembly. For the molecule “SpxR (SPD_0969), full-length recombinant (natural protein)”, the stoichiometry N was 3 in [1]; 4 and 8 in series [2]; 4 in series [3]; 4 in series [4].

B1: 21-CE (dsDNA)
DNA 1: GTGTACTATATTATATTGAAA
DNA 2: TTTCAATATAATATAGTACAC
Usually Kd stands for the constant that tells how readily two partners part at equilibrium. Regarding B1, the dissociation constant Kd with SpxR [5] came out at 71 nM.

B2: 21-CE SpxR-only (dsDNA)
DNA 1: GTGTACTAGAGTAGTTTGAAA
DNA 2: TTTCAAACTACTCTAGTACAC
For B2, the binding result in the series with CpsR [6] is “no binding”. Also, in the series with SpxR [5], the Kd came to 56 nM.

B3: 37-CE 5' (10 bp) (dsDNA)
DNA 1: TGTGTACTAT
DNA 2: ATAGTACACA
On to B3, for which the binding result in the series with SpxRDBD [7] and with CpsR [6] was “no binding” throughout.

B4: CpsR (SPD_0064), recombinant (natural protein)
chain: MEKENRGKNMAIPKYQYIKDELKNKIISGQFSSGDKFYTEAELISMYDVSSITVVRALNDLAKDGYIVRQQGKGTFVSRARKHKLVEFSDIELFNAKDDKVTVLSIERGNKLVYLEKLGLRGDQFYYKIERIRESNGVVYIYHTSYIPEQYINANYPNLEYYSSIYNRFKLDYHIHMNDEHFEEINEIVFPTPEHAASVLGVDEQFPTVLQTKITKLESTGQVLEYSETYKRSDYYKIKFISCDRDH
notes: CpsR (also called AgaR), transcription factor of Streptococcus pneumoniae D39, locus SPD_0064; 65.72 kDa as a dimer; cpsR amplified from D39 genomic DNA into pE-SUMO; also called AgaR; source: E. coli T7 Express lysY/Iq, purified (Ni-NTA, Ulp1 cleavage, SEC)
For B4, in [8], the “stoichiometry N” value amounted to 2.

B5: 37-CE (dsDNA)
DNA 1: TGTGTACTATATTATATTGAAACTAGAATAGTACACA
DNA 2: TGTGTACTATTCTAGTTTCAATATAATATAGTACACA
For the molecule B5, the binding result with CpsR [9] and in the series with SpxR [10] was “binds” throughout.

B6: 37-CE 3'+10 (dsDNA)
DNA 1: TGAAACTAGAATAGTACACA
DNA 2: TGTGTACTATTCTAGTTTCA
B6: the binding result is reported as “no binding” with CpsR [6] and “binds” with SpxRDBD [11].

B7: 37-CE 5'+10 (dsDNA)
DNA 1: TGTGTACTATATTATATTGA
DNA 2: TCAATATAATATAGTACACA
B7: the binding result in the series with CpsR [6] and in the series with SpxRDBD [12] was “binds” in each case.

B8: 21-CE Neither (dsDNA)
DNA 1: GTGTGAGAGAGTAGTTTGAAA
DNA 2: TTTCAAACTACTCTCTCACAC
B8: the binding result with SpxRDBD [7] and with CpsR [6] was “no binding” in each case.

B9: 21-CE CpsR-only (dsDNA)
DNA 1: GTGTGAGATATTATATTGAAA
DNA 2: TTTCAATATAATATCTCACAC
For the molecule B9, the binding result in the series with SpxRDBD [7] is reported as “no binding”. Moreover, the Kd with SpxR [5] stood at 104 nM.

B10: 37-CE spacer (17 bp) (dsDNA)
DNA 1: ATTATATTGAAACTAGA
DNA 2: TCTAGTTTCAATATAAT
Turning to B10, the binding result with SpxRDBD [7] and with CpsR [6] was “no binding” in each case.

These data come from PMC9888711, “Pneumococcal capsule expression is controlled through a conserved, distal cis-regulatory element during infection” (PLOS Pathogens, 2023).
